{"source": "patent US20250059284A1", "key": {"[1]": {"target": "galectin-10 (Gal10), species and tag not stated for the assay (UniProt Q05315)", "sequence (Q05315 2-142 limits assumed)": "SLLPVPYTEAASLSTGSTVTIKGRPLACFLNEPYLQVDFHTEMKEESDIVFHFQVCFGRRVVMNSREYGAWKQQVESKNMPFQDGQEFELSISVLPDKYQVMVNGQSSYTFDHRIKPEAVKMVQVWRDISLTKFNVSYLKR", "assay": "competition ELISA; negative control, set as 0% competition; competitor biotinylated g7B07 hFab"}, "[2]": {"target": "galectin-10 (Gal10), species and tag not stated for the assay (UniProt Q05315)", "assay": "competition ELISA; negative control; competitor biotinylated g7B07 hFab (detected)"}}, "data": [{"substance": "Motavizumab in human Fab backbone", "values": [{"measurement": "% Competition against g7B07-Biot", "setting": "[1]", "result": 0, "unit": "%"}, {"measurement": "Mean OD value", "setting": "[2]", "result": 2.51, "unit": "OD"}]}]}
